Reference: paper PMC7781310
pKd: −log10 of the molar value.

Legend:
[1] = molecular target: sACE2_(2).v2.4-IgG1 (human) (UniProt Q9BYF1); test: BLI
[2] = molecular target: Wild type sACE2_(2)-IgG1 (human) (UniProt Q9BYF1); test: BLI

Substance	pKd [1]	koff [1] [s⁻¹]	pKd [2]	koff [2] [s⁻¹]
LYRa11 RBD-8h (domain or fragment)	8.74	0.0025	7.04	0.079
Rs4084 RBD-8h (domain or fragment)	8.51	0.0015	7.07	0.025
Rs4231 RBD-8h (domain or fragment)	8.46	0.0016	7.16	0.022
Rs7327 RBD-8h (domain or fragment)	8.72	0.0018	7.20	0.04
RsSHC014 RBD-8h (domain or fragment)		0.002		
